Data reported in IntAct's records for PubMed 31515488.
Values belong to the substance of their own block, whether it stands above or below them.

What was measured:
[1] = biological target: vatl_human ATP6V0C (UniProt P27449)
[2] = biological target: sc22a_human SEC22A (UniProt Q96IW7)
[3] = biological target: ppla_human PLN (UniProt P26678)
[4] = biological target: mal_human MAL (UniProt P21145)
[5] = biological target: emp3_human EMP3 (UniProt P54852)
[6] = biological target: T1, mycd_human MYOCD (UniProt Q8IZQ8)
T1 sequence: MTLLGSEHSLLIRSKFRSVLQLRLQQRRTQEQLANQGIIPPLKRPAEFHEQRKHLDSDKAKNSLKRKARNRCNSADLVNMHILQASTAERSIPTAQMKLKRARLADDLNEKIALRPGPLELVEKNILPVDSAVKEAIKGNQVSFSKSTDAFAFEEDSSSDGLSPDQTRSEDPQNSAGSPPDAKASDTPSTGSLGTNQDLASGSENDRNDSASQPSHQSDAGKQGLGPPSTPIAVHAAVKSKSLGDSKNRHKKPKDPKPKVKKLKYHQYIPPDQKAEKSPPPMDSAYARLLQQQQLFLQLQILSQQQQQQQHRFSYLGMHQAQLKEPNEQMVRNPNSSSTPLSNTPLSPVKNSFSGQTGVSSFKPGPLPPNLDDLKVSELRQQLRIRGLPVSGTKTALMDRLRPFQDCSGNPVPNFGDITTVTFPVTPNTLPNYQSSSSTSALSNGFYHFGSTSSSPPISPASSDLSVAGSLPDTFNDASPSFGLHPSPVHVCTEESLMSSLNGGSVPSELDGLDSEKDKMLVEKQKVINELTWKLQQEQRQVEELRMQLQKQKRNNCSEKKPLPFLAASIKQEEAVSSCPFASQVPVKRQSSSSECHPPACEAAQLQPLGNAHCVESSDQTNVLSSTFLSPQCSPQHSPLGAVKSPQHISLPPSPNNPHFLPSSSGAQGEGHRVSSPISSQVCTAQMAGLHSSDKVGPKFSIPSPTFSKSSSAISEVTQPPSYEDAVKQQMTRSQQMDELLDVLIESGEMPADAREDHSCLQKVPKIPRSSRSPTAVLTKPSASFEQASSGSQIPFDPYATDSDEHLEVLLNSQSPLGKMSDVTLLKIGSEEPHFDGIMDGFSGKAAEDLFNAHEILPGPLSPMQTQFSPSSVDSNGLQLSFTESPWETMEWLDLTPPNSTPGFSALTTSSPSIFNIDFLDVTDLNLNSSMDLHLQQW

[7] = biological target: gt253_human CERCAM (UniProt Q5T4B2)
[8] = biological target: vtnc_human VTN (UniProt P04004)
[9] = biological target: cep63_human CEP63 (UniProt Q96MT8)
[10] = biological target: txnd5_human TXNDC5 (UniProt Q8NBS9)
[11] = biological target: mare1_human MAPRE1 (UniProt Q15691)
Chain of mare1_human MAPRE1 (Q15691 whole entry): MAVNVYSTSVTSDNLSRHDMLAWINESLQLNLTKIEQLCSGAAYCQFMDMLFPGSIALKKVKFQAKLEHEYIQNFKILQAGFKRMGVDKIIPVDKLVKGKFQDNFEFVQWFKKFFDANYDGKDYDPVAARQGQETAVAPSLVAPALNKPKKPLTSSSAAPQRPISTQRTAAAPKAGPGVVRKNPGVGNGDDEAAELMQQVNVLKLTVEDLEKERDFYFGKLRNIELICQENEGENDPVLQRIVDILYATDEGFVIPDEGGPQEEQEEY

[12] = biological target: sdcb1_human SDCBP (UniProt O00560)
Chain of sdcb1_human SDCBP (O00560 whole entry): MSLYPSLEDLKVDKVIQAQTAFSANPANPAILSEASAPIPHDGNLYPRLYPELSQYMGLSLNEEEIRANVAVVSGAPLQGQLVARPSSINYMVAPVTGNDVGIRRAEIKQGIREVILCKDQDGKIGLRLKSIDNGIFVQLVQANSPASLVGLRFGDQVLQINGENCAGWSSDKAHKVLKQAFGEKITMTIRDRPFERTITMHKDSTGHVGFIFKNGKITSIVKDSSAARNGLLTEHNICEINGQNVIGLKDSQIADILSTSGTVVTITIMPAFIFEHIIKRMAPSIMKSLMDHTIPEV

[13] = biological target: ut14c_human UTP14C (UniProt Q5TAP6)
Chain of ut14c_human UTP14C (Q5TAP6 whole entry): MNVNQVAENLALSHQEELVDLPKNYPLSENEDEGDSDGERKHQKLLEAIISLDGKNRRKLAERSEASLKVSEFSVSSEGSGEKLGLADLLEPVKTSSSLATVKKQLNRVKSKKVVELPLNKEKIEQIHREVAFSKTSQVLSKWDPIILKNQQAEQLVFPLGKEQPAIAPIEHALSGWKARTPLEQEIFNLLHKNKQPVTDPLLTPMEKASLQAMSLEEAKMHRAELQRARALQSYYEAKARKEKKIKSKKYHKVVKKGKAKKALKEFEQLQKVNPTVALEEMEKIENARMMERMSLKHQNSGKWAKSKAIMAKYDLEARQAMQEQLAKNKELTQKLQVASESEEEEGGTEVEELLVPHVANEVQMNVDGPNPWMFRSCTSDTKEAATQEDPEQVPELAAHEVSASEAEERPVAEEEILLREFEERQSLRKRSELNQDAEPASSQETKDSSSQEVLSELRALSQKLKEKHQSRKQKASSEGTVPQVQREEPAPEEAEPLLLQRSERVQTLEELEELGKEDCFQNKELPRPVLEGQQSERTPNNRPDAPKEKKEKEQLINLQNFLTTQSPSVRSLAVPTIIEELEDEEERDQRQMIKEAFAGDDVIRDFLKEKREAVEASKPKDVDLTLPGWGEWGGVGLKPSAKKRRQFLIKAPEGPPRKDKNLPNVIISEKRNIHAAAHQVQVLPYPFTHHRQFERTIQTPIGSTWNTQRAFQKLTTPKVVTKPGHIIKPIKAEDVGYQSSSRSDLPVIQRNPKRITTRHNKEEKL

[14] = biological target: prp31_human PRPF31 (UniProt Q8WWY3)
Chain of prp31_human PRPF31 (Q8WWY3 whole entry): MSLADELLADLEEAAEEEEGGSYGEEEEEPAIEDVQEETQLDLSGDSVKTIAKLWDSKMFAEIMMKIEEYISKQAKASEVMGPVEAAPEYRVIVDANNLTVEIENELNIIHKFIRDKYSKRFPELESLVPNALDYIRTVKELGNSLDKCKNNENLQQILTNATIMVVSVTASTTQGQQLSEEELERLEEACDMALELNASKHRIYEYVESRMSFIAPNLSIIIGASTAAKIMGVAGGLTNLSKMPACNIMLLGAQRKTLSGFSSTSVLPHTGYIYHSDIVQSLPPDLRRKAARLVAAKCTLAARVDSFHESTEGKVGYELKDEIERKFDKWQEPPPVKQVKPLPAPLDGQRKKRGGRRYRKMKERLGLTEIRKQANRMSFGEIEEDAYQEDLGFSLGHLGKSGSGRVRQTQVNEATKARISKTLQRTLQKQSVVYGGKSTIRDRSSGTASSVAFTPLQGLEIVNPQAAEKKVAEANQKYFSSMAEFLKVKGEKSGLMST

[15] = biological target: lmo4_human LMO4 (UniProt P61968)
Chain of lmo4_human LMO4 (P61968 whole entry): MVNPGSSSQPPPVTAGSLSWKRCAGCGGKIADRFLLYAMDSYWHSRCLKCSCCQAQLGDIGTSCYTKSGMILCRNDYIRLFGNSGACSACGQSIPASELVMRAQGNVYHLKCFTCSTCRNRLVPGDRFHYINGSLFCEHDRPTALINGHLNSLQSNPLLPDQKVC

[16] = biological target: erep1_human ENTREP1 (UniProt Q15884)
[17] = biological target: pdli7_human PDLIM7 (UniProt Q9NR12)
[18] = biological target: hnrl1_human HNRNPUL1 (UniProt Q9BUJ2)
Chain of hnrl1_human HNRNPUL1 (Q9BUJ2 whole entry): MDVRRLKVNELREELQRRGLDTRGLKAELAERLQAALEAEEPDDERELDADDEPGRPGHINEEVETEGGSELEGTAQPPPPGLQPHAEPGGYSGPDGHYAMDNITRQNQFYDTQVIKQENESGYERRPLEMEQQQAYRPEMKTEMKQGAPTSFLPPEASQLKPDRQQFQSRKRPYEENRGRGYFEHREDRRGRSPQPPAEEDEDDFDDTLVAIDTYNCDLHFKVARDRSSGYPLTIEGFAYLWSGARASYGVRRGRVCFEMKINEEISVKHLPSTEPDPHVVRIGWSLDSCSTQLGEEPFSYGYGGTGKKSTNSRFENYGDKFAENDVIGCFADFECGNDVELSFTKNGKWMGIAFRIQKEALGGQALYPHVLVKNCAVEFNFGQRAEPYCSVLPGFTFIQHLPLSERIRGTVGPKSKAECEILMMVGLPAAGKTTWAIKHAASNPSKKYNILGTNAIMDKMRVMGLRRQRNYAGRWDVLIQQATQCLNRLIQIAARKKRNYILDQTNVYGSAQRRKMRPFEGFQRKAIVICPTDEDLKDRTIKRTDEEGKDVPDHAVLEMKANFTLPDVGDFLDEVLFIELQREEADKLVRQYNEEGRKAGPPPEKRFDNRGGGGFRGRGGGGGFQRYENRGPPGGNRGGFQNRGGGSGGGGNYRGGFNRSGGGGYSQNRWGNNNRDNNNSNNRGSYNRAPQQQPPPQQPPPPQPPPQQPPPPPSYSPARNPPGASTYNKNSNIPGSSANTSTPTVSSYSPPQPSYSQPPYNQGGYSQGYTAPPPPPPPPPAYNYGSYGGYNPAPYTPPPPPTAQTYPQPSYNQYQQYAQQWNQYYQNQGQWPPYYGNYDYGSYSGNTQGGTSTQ

[19] = biological target: fxl18_human FBXL18 (UniProt Q96ME1)
Chain of fxl18_human FBXL18 (Q96ME1 whole entry): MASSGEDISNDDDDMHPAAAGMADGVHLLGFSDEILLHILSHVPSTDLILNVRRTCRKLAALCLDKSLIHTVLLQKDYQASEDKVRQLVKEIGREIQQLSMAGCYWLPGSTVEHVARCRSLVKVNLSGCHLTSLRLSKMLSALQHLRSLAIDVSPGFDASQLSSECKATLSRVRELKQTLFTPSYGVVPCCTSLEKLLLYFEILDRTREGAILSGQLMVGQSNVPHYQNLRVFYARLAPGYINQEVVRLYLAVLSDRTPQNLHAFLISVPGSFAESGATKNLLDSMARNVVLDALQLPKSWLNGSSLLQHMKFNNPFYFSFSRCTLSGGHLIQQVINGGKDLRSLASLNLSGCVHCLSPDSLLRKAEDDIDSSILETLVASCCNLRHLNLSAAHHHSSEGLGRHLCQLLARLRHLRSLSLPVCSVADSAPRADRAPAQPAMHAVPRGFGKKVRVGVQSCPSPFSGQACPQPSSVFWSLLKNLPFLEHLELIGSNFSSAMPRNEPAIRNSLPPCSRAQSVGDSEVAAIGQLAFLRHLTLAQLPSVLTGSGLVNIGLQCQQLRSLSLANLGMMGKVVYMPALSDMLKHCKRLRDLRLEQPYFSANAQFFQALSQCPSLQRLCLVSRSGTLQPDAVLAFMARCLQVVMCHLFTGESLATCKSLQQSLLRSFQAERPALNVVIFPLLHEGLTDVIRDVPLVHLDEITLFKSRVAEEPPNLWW

[20] = biological target: TSC22D4 (UniProt Q9Y3Q8)
Chain of TSC22D4 (Q9Y3Q8 whole entry): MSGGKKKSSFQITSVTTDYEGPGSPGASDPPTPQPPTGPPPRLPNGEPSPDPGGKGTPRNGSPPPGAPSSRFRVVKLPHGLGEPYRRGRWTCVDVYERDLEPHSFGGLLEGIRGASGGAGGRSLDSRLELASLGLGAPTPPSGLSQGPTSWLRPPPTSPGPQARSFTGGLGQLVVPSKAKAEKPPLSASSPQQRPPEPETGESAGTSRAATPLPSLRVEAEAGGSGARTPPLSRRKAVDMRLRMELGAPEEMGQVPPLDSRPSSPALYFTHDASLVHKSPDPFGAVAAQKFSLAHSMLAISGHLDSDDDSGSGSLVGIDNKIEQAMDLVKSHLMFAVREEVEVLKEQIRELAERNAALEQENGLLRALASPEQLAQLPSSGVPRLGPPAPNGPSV

[21] = biological target: hem1_human ALAS1 (UniProt P13196)
[22] = biological target: T2, fsd2_human FSD2 (UniProt A1L4K1)
T2 sequence: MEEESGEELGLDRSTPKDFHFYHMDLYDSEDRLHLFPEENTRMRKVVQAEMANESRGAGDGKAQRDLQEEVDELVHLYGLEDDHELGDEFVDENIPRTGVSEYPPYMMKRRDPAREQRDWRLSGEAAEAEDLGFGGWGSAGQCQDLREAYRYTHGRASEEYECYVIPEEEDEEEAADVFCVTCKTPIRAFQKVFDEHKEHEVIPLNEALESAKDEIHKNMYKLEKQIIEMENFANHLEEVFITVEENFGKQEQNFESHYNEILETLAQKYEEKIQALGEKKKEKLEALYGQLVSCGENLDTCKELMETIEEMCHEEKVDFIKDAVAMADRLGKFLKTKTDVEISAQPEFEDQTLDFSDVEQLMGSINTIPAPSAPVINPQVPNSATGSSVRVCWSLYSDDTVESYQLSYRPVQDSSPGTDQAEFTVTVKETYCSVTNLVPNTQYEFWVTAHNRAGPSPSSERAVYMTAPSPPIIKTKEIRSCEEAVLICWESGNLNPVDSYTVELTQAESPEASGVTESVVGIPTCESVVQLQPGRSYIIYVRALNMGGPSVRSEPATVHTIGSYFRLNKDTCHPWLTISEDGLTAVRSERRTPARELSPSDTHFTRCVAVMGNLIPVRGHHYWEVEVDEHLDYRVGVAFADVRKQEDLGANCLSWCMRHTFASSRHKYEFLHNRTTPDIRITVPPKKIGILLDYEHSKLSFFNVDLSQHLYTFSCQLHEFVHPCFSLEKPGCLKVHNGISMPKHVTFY

[23] = biological target: T3, goga2_human GOLGA2 (UniProt Q08379)
T3 sequence: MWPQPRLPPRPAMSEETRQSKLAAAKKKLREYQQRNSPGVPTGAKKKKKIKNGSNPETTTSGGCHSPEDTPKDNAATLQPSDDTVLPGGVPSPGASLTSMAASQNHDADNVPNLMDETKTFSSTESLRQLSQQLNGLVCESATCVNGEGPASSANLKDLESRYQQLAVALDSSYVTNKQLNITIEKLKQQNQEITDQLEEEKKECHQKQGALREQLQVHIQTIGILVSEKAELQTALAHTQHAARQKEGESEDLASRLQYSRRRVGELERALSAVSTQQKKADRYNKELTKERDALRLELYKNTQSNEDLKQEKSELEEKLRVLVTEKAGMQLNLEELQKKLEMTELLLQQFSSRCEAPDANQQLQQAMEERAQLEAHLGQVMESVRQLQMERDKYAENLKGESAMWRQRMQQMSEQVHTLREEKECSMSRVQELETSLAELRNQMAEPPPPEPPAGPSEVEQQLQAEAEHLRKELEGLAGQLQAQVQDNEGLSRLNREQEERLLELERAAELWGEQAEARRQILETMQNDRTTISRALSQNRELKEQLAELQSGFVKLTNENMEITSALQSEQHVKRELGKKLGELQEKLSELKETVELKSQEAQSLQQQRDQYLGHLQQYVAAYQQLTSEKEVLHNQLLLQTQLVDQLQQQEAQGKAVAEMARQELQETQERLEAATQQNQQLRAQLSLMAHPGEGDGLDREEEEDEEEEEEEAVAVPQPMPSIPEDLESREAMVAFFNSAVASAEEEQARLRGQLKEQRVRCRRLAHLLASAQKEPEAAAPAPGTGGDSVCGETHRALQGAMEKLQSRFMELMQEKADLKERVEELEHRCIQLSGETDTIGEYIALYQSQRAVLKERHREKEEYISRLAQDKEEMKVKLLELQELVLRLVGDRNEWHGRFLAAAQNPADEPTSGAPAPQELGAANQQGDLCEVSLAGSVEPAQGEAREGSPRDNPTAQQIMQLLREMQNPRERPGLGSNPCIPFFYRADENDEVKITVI

[24] = biological target: mtus2_human MTUS2 (UniProt Q5JR59)
[25] = biological target: traf1_human TRAF1 (UniProt Q13077)

Chain of Ectodysplasin-A (Homo sapiens), Q92838 R153H (Q92838 whole entry R153H): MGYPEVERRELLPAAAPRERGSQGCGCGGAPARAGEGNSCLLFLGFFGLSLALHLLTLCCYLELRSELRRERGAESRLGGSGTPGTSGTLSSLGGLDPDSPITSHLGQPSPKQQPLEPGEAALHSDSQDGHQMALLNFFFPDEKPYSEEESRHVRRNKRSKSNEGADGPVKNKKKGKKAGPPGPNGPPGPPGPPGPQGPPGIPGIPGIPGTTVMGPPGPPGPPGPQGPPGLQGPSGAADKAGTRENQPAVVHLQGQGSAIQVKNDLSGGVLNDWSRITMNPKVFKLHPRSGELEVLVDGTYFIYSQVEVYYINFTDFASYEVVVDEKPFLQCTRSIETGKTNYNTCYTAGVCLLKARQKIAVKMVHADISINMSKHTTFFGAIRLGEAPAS
Chain of Ectodysplasin-A (Homo sapiens), Q92838 A367T (Q92838 whole entry A367T): as the sequence (Q92838 whole entry R153H) above, with H153R, A367T counted along it
Chain of sc22a_human SEC22A (Q96IW7 whole entry): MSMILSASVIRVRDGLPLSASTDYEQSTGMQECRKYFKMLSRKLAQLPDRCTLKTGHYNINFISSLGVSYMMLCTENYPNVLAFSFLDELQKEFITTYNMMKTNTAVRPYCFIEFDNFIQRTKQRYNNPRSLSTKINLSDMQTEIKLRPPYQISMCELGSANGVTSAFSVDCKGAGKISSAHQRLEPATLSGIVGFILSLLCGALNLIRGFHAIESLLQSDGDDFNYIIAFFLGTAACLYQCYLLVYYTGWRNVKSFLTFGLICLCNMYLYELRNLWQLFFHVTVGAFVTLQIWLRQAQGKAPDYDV
Chain of vatl_human ATP6V0C (P27449 whole entry): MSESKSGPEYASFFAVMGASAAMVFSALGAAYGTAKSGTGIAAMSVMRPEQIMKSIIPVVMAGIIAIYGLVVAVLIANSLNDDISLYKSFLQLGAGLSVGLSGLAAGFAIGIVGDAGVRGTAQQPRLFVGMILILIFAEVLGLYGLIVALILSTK
Chain of ppla_human PLN (P26678 whole entry): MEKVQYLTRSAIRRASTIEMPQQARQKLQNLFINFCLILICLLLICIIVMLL

effect of a mutation on the interaction [1]: with no effect | effect of a mutation on the interaction [2]: with no effect | effect of a mutation on the interaction [3]: with no effect | effect of a mutation on the interaction [4]: with no effect | effect of a mutation on the interaction [5]: with no effect
Substance: Ectodysplasin-A (Homo sapiens), Q92838 A367T

effect of a mutation on the interaction [1]: with no effect | effect of a mutation on the interaction [2]: with no effect | effect of a mutation on the interaction [3]: with no effect | effect of a mutation on the interaction [4]: with no effect | effect of a mutation on the interaction [5]: with no effect
Substance: Ectodysplasin-A (Homo sapiens), Q92838 R153H

effect of a mutation on the interaction [6]: disrupting interaction strength | effect of a mutation on the interaction [7]: disrupting interaction strength | effect of a mutation on the interaction [8]: disrupting interaction strength
Substance: Golgi-associated PDZ and coiled-coil motif-containing protein (Homo sapiens) (from UniProt Q9HD26) G53E

effect of a mutation on the interaction [9]: with no effect
Substance: Histone-lysine N-methyltransferase EZH2 (Homo sapiens), Q15910-2 N640K

effect of a mutation on the interaction [9]: with no effect
Substance: Histone-lysine N-methyltransferase EZH2 (Homo sapiens), Q15910-2 R288Q

effect of a mutation on the interaction [10]: with no effect
Substance: Mannose-1-phosphate guanylyltransferase catalytic subunit beta (Homo sapiens), Q9Y5P6 H126D

effect of a mutation on the interaction [11]: with no effect | effect of a mutation on the interaction [12]: with no effect | effect of a mutation on the interaction [13]: with no effect | effect of a mutation on the interaction [14]: with no effect | effect of a mutation on the interaction [15]: with no effect
Substance: Myomegalin (Homo sapiens), Q5VU43 M783I

effect of a mutation on the interaction [16]: with no effect | effect of a mutation on the interaction [17]: with no effect | effect of a mutation on the interaction [18]: with no effect | effect of a mutation on the interaction [19]: with no effect
Substance: NEDD4-like E3 ubiquitin-protein ligase WWP2 (Homo sapiens), O00308 H401R

effect of a mutation on the interaction [20]: with no effect
Substance: Nuclear receptor-binding protein (Homo sapiens), Q9UHY1 P432L

effect of a mutation on the interaction [24]: with no effect
Substance: Zinc finger protein 224 (Homo sapiens), Q9NZL3 Q447H

effect of a mutation on the interaction [25]: with no effect
Substance: Zinc finger protein 502 (Homo sapiens), Q8TBZ5 T184A

The remaining lines, values behind:

Substance: Mannose-1-phosphate guanylyltransferase catalytic subunit beta (Homo sapiens), Q9Y5P6 R158Q
effect of a mutation on the interaction [10]: with no effect

Substance: Myomegalin (Homo sapiens), Q5VU43 E391A
effect of a mutation on the interaction [11]: with no effect | effect of a mutation on the interaction [12]: with no effect | effect of a mutation on the interaction [13]: with no effect | effect of a mutation on the interaction [14]: with no effect | effect of a mutation on the interaction [15]: with no effect

Substance: Myomegalin (Homo sapiens), Q5VU43 I612T
effect of a mutation on the interaction [11]: with no effect | effect of a mutation on the interaction [12]: with no effect | effect of a mutation on the interaction [13]: with no effect | effect of a mutation on the interaction [14]: with no effect | effect of a mutation on the interaction [15]: with no effect

Substance: NEDD4-like E3 ubiquitin-protein ligase WWP2 (Homo sapiens), O00308 R178Q
effect of a mutation on the interaction [19]: with no effect

Substance: NEDD4-like E3 ubiquitin-protein ligase WWP2 (Homo sapiens), O00308 R215W
effect of a mutation on the interaction [16]: with no effect | effect of a mutation on the interaction [17]: with no effect | effect of a mutation on the interaction [18]: with no effect | effect of a mutation on the interaction [19]: with no effect

Substance: Nuclear receptor-binding protein (Homo sapiens), Q9UHY1 V365I
effect of a mutation on the interaction [20]: with no effect

Substance: Parafibromin (Homo sapiens) (from UniProt Q6P1J9) L95P
effect of a mutation on the interaction [21]: disrupting interaction strength | effect of a mutation on the interaction [22]: disrupting interaction strength | effect of a mutation on the interaction [23]: disrupting interaction strength

Substance: Parafibromin (Homo sapiens) (from UniProt Q6P1J9) R147C
effect of a mutation on the interaction [21]: with no effect | effect of a mutation on the interaction [22]: with no effect | effect of a mutation on the interaction [23]: with no effect

Substance: Parafibromin (Homo sapiens) (from UniProt Q6P1J9) R156H
effect of a mutation on the interaction [21]: with no effect | effect of a mutation on the interaction [22]: with no effect | effect of a mutation on the interaction [23]: with no effect

Substance: Zinc finger protein 224 (Homo sapiens), Q9NZL3 K640E
effect of a mutation on the interaction [24]: with no effect
